US20040171019A1, “PIN1 peptidyl-prolyl isomerase polypeptides, their crystal structures, and use thereof for drug design” (Agouron Pharmaceuticals, Inc., priority 2002, published 2004)

System: Suc-AEPF-pNA peptide substrate
Assay: Peptidyl-prolyl isomerase activity of PIN1 polypeptides without inhibitor
Type: biochemical
Settings: 0.033 nM enzyme, 100 μM Suc-AEPF-pNA
Source text: PIN1 is a phosphorylation dependent peptidyl-prolyl isomerase. Peptidyl-prolyl ismomerase activity for the peptides of the invention can be measured using a spectrophotometric assay based on the coupled chymotrypsin catalyzed, cis-trans conformation dependent cleavage of a para-nitroanaline-containing peptide substrate. This rotamase assay is described by Kofron et al. (Biochemistry 30, […] (1991)) and its application to PIN1 isomerase activity is described by Yaffe et al. (Science 278, 1957-1960 (1997)). Cleavage of the isomerized peptide releases para-nitroanaline, which can be monitored by an increase in absorbance at 390 nm. The PIN1 peptide substrate, succinyl-alanine-[…]-proline-phenylalanine-paranitroaniline (Suc-AEPF-pNA) (Bachem California, Inc., Torrence, Calif.) is kept in a predominantly cis conformation with an anhydrous TFE (trifluorethanol)/LiCl (lithium chloride) solvent mixture. […]
Peptidyl-prolyl isomerase reactions were carried out in 25 mM MOPS [3-(N-Morpholino)propanesufonic acid], pH 7.5, 0.5 mM TCEP [Tris(2-carboxyethyl)phosphine hydrochloride], 2% DMSO, 5 μl of a 25 mg/ml solution of Subtilisin Carlsberg Protease (Sigma), […], and 100 μM Suc-AEPF-pNA peptide substrate. […] The absorbance at 390 nm was monitored continuously until all substrate had been converted to the cleaved product. […]

rate: 0.2
B1: mutant PIN1 PPIase (K77Q/K82Q): mutant PIN1 PPIase polypeptide (SEQ ID NO:4) devoid of the WW domain, with K77Q and K82Q substitutions (protein)
chain: GSHMGKNGQGEPARVRCSHLLVKHSQSRRPSSWRQEQITRTQEEALELINGYIQKIKSGEEDFESLASQFSDCSSAKARGDLGAFSRGQMQKPFEDASFALRTGEMSGPVFTDSGIHIILRTE
